In paper PMC6238537:

Experiments:
Assay in all cases: solid-phase binding assay
[1] = biological target: recombinant integrin αvβ3, P06756;P05106; conditions: read off a plot
[2] = biological target: recombinant integrin αvβ5, P06756;P18084; conditions: read off a plot
[3] = biological target: recombinant integrin α9β1, Q13797;P05556; conditions: parent: est. 0.11; read off a plot
Chain of recombinant integrin α9β1, Q13797;P05556 (chain, as listed by the source, chain 1 of 2): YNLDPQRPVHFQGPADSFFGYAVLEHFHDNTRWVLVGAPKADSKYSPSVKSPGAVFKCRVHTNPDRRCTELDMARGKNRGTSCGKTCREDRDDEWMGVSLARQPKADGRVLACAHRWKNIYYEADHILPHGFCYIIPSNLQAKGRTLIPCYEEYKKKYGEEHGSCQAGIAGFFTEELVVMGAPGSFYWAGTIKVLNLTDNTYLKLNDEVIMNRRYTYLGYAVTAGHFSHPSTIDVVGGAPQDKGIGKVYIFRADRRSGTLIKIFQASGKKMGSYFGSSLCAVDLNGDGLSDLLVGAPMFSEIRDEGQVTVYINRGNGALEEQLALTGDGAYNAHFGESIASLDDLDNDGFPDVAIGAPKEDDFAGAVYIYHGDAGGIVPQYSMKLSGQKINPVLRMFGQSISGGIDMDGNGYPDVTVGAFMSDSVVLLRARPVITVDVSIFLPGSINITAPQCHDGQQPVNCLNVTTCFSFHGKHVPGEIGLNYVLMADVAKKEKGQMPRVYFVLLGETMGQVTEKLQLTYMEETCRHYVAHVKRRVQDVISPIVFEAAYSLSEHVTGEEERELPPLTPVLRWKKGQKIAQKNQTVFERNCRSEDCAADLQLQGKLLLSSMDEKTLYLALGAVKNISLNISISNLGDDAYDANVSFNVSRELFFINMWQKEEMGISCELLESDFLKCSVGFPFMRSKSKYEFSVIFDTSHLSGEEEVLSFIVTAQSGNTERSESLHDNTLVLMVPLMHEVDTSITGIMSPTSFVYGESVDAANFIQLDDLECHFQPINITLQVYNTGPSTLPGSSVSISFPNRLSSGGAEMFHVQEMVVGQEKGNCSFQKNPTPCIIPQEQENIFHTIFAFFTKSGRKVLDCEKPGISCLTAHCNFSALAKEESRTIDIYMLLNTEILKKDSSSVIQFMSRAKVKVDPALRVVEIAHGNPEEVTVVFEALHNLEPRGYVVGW
Chain of recombinant integrin α9β1, Q13797;P05556 (chain, as listed by the source, chain 2 of 2): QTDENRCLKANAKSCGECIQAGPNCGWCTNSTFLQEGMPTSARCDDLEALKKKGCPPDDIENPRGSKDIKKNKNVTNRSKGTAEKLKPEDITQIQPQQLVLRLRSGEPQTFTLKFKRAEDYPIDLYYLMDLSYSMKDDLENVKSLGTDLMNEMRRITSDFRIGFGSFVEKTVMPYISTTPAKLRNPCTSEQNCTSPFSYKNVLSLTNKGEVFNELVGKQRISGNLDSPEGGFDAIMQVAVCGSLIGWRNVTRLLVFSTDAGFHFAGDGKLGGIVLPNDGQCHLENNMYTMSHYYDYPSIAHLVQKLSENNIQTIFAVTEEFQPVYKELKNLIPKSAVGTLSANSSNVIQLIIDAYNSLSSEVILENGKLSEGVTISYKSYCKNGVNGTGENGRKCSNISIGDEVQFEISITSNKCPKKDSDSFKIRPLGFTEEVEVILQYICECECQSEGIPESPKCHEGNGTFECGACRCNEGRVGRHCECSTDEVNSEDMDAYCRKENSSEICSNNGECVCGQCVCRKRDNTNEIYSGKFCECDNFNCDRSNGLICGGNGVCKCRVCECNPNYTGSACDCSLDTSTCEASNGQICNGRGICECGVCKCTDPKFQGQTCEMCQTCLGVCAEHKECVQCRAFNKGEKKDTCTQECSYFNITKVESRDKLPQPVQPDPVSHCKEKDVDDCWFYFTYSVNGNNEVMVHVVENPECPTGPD

response (absorbance at 490 nm) ([1]; parent: est. 0.15)	response (absorbance at 490 nm) ([2]; parent: est. 0.26)	response (absorbance at 490 nm) [3]	response (absorbance at 490 nm) ([1]; parent: est. 0.53)	response (absorbance at 490 nm) ([2]; parent: est. 1.4)	Substance
0.17	0.27				recombinant human laminin-111 (from UniProt P25391;P07942;P11047) γ1:EQ (γ1C-Glu to Gln)
		0.13	0.62	1.6	recombinant human laminin-511, O15230;P07942;P11047 γ1:EQ (γ1C-Glu to Gln)
